{"source": "paper PMC3507735", "about": "“Cloning, expression and characterization of an aryl-alcohol dehydrogenase from the white-rot fungus Phanerochaete chrysosporium strain BKM-F-1767” (BMC Microbiology, 2012)", "molecules": {"B1": {"name": "Pc Aad1p (recombinant aryl-alcohol dehydrogenase, AAD1) (Phanerodontia chrysosporium) (protein)", "chain": "MNIWAPAPEPPTKLGRHRQLAPGCGLHVSPIQLGAMSIGDKWHPYGMGTMDKEASFKLLDAFYNAGGNFIDTANVYQDETSEEFIGEWMEARGNRDQMVVATKYSLVYKRGASFEEIPQKTQYVGNSLKSMHISVHDSLRKLRTSYIDIFYVHFWDYTCTIEEVMNGLHNLVAQGKVLYLGVSDTPAWVVSKANNYARMAGKTPFVIYEGEWNITMRDMERDIIPMCIHEGMAIAPWNVLCAGKIRTDAEEERRLKSGEGGRTLLQFDGWLRNETERKVSKALEKVAEEIGAKSITSVAIAYLMQKFPYVFPIVGGRKVEHLYANLEALDISLSPEQMQFLNDTVPFNKGFPYLLFGDGSDYNIVHKAAGHYDKWPAQQAIRPQK", "notes": "full-length ORF (1155 bp) in pGS-21a; N-terminal His6-GST and C-terminal His6 tags kept; E. coli BL21 Star(DE3)"}}, "key": {"[1]": {"target": "T1, Pc Aad1p (recombinant aryl-alcohol dehydrogenase, AAD1) (Phanerodontia chrysosporium, UniProt Q01752)", "T1 sequence (Q01752 1-385)": "B1 chain", "test": "spectrophotometric NADPH oxidation at […] nm, fit to uncompetitive substrate inhibition equation", "format": "biochemical", "design": "full-length ORF (1155 bp) in pGS-21a; N-terminal His6-GST and C-terminal His6 tags kept; E. coli BL21 Star(DE3)", "settings": "substrate inhibition constant (uncompetitive); 0.3 mM NADPH, 50 mM MES pH 6.1, 30°C"}, "[2]": {"target": "T1, Pc Aad1p (recombinant aryl-alcohol dehydrogenase, AAD1)", "test": "spectrophotometric NADPH oxidation at […] nm, non-linear fit", "settings": "read-out: KMμM; reduction; 0.3 mM NADPH, 50 mM MES pH 6.1, 30°C"}, "COc1ccc(C=O)cc1O": {"system": "COc1ccc(C=O)cc1O", "test": "purified protein", "settings": "reduction, 0.3 mM NADPH, 50 mM MES pH 6.1, 30°C"}, "purified protein [3]": {"substrate": "NC(=O)C1=CN([C@@H]2O[C@H](COP(=O)(O)OP(=O)(O)OC[C@H]3O[C@@H](n4cnc5c(N)ncnc54)[C@H](OP(=O)(O)O)[C@@H]3O)[C@@H](O)[C@H]2O)C=CC1", "test": "purified protein", "format": "biochemical, Phanerodontia chrysosporium", "settings": "0.2 mM 3,4-dimethoxybenzaldehyde, 50 mM MES pH 6.1, 30°C, varied: cofactor"}, "purified protein [4]": {"substrate": "COc1ccc(CO)cc1OC", "test": "purified protein", "format": "biochemical, Phanerodontia chrysosporium", "settings": "oxidation, 0.3 mM NADP+, 100 mM Glycine-KOH pH 10.3, 30°C"}, "purified protein [5]": {"substrate": "NC(=O)C1=CN([C@@H]2O[C@H](COP(=O)(O)OP(=O)(O)OC[C@H]3O[C@@H](n4cnc5c(N)ncnc54)[C@H](O)[C@@H]3O)[C@@H](O)[C@H]2O)C=CC1", "test": "purified protein", "format": "biochemical, Phanerodontia chrysosporium", "settings": "0.2 mM 3,4-dimethoxybenzaldehyde, 50 mM MES pH 6.1, 30°C, varied: cofactor"}, "purified protein [6]": {"substrate": "COc1cc(CO)ccc1O", "test": "purified protein", "format": "biochemical, Phanerodontia chrysosporium", "settings": "oxidation, 0.3 mM NADP+, 100 mM Glycine-KOH pH 10.3, 30°C"}, "purified protein [7]": {"substrate": "NC(=O)c1ccc[n+]([C@@H]2O[C@H](COP(=O)(O)OP(=O)(O)OC[C@H]3O[C@@H](n4cnc5c(N)ncnc54)[C@H](OP(=O)(O)O)[C@@H]3O)[C@@H](O)[C@H]2O)c1", "test": "purified protein", "format": "biochemical, Phanerodontia chrysosporium", "settings": "10 mM 3,4-dimethoxybenzyl alcohol, 100 mM Glycine-KOH pH 10.3, 30°C, varied: cofactor"}, "purified protein [8]": {"substrate": "O=Cc1ccc(CO)o1", "test": "purified protein", "settings": "reduction, 0.3 mM NADPH, 50 mM MES pH 6.1, 30°C"}, "purified protein [9]": {"substrate": "COc1cc(C=O)ccc1O", "test": "purified protein", "settings": "reduction, 0.3 mM NADPH, 50 mM MES pH 6.1, 30°C"}, "purified protein [10]": {"substrate": "COc1cc(C=O)cc(OC)c1", "test": "purified protein", "settings": "reduction, 0.3 mM NADPH, 50 mM MES pH 6.1, 30°C"}, "purified protein [11]": {"substrate": "O=Cc1ccccc1", "test": "purified protein", "settings": "reduction, 0.3 mM NADPH, 50 mM MES pH 6.1, 30°C"}, "purified protein [12]": {"substrate": "O=CCc1ccccc1", "test": "purified protein", "settings": "reduction, 0.3 mM NADPH, 50 mM MES pH 6.1, 30°C"}, "purified protein [13]": {"substrate": "COc1ccc(C=O)cc1OC", "test": "purified protein", "settings": "reduction, 0.3 mM NADPH, 50 mM MES pH 6.1, 30°C"}}, "data": [{"molecule": "COc1ccc(C=O)cc1O", "note": "[3-Hydroxy-4-methoxybenzaldehyde]", "values": [{"measurement": "KiμM", "setting": "[1]", "result": "2300 ± 1800", "unit": "µM"}]}, {"molecule": "COc1ccc(C=O)cc1OC", "note": "[3,4-Dimethoxybenzaldehyde]", "values": [{"measurement": "KiμM", "setting": "[1]", "result": "3400 ± 1100", "unit": "µM"}]}, {"molecule": "O=Cc1ccccc1", "note": "[Benzaldehyde]", "values": [{"measurement": "KiμM", "setting": "[1]", "result": "81000 ± 44000", "unit": "µM"}]}, {"molecule": "COc1cc(C=O)cc(OC)c1", "note": "[3,5-Dimethoxybenzaldehyde]", "values": [{"measurement": "KiμM", "setting": "[1]", "result": "2100 ± 600", "unit": "µM"}]}, {"molecule": "O=C/C=C/c1ccccc1", "note": "[trans-Cinnamaldehyde]", "values": [{"measurement": "Km", "setting": "[2]", "result": "3400 ± 1300", "unit": "µM"}, {"measurement": "KiμM", "setting": "[1]", "result": "3500 ± 1600", "unit": "µM"}]}, {"molecule": "COc1ccc(C=O)cc1", "note": "[4-Methoxybenzaldehyde]", "values": [{"measurement": "Km", "setting": "[2]", "result": "90 ± 10", "unit": "µM"}]}, {"molecule": "Pc Aad1p (recombinant aryl-alcohol dehydrogenase, AAD1) (Phanerodontia chrysosporium)", "values": [{"measurement": "Km", "setting": "COc1ccc(C=O)cc1O", "result": "1400 ± 900", "unit": "µM"}, {"measurement": "kcat", "setting": "COc1ccc(C=O)cc1O", "result": "3.83 ± 1.83", "unit": "s⁻¹"}, {"measurement": "kcat/Km", "setting": "COc1ccc(C=O)cc1O", "result": 2670, "unit": "M⁻¹ s⁻¹"}]}, {"molecule": "COc1cc(C=O)ccc1O", "note": "[4-Hydroxy-3-methoxybenzaldehyde]", "values": [{"measurement": "KiμM", "setting": "[1]", "result": "5100 ± 2300", "unit": "µM"}]}, {"molecule": "B1", "values": [{"measurement": "Km", "setting": "purified protein [3]", "result": "39 ± 5", "unit": "µM"}, {"measurement": "kcat", "setting": "purified protein [3]", "result": "11.3 ± 0.5", "unit": "s⁻¹"}, {"measurement": "kcat/Km", "setting": "purified protein [3]", "result": 283000, "unit": "M⁻¹ s⁻¹"}, {"measurement": "Km", "setting": "purified protein [4]", "result": "370 ± 50", "unit": "µM"}, {"measurement": "kcat", "setting": "purified protein [4]", "result": "2.55 ± 0.1", "unit": "s⁻¹"}, {"measurement": "kcat/Km", "setting": "purified protein [4]", "result": 6830, "unit": "M⁻¹ s⁻¹"}, {"measurement": "Km", "setting": "purified protein [5]", "result": "220 ± 130", "unit": "µM"}, {"measurement": "kcat", "setting": "purified protein [5]", "result": "2 ± 0.667", "unit": "s⁻¹"}, {"measurement": "kcat/Km", "setting": "purified protein [5]", "result": 10000, "unit": "M⁻¹ s⁻¹"}, {"measurement": "Km", "setting": "purified protein [6]", "result": "25000 ± 7000", "unit": "µM"}, {"measurement": "kcat", "setting": "purified protein [6]", "result": "4.33 ± 1", "unit": "s⁻¹"}, {"measurement": "kcat/Km", "setting": "purified protein [6]", "result": 167, "unit": "M⁻¹ s⁻¹"}, {"measurement": "Km", "setting": "purified protein [7]", "result": "38 ± 7", "unit": "µM"}, {"measurement": "kcat", "setting": "purified protein [7]", "result": "2.57 ± 0.12", "unit": "s⁻¹"}, {"measurement": "kcat/Km", "setting": "purified protein [7]", "result": 68300, "unit": "M⁻¹ s⁻¹"}, {"measurement": "Km", "setting": "purified protein [8]", "result": "270 ± 40", "unit": "µM"}, {"measurement": "kcat", "setting": "purified protein [8]", "result": "2.93 ± 0.1", "unit": "s⁻¹"}, {"measurement": "kcat/Km", "setting": "purified protein [8]", "result": 10800, "unit": "M⁻¹ s⁻¹"}, {"measurement": "Km", "setting": "purified protein [9]", "result": "1400 ± 600", "unit": "µM"}, {"measurement": "kcat", "setting": "purified protein [9]", "result": "3.33 ± 0.833", "unit": "s⁻¹"}, {"measurement": "kcat/Km", "setting": "purified protein [9]", "result": 2330, "unit": "M⁻¹ s⁻¹"}, {"measurement": "Km", "setting": "purified protein [10]", "result": "22 ± 4", "unit": "µM"}, {"measurement": "kcat", "setting": "purified protein [10]", "result": "9.83 ± 0.5", "unit": "s⁻¹"}, {"measurement": "kcat/Km", "setting": "purified protein [10]", "result": 450000, "unit": "M⁻¹ s⁻¹"}, {"measurement": "Km", "setting": "purified protein [11]", "result": "1700 ± 600", "unit": "µM"}, {"measurement": "kcat", "setting": "purified protein [11]", "result": "7.17 ± 0.833", "unit": "s⁻¹"}, {"measurement": "kcat/Km", "setting": "purified protein [11]", "result": 5000, "unit": "M⁻¹ s⁻¹"}, {"measurement": "Km", "setting": "purified protein [12]", "result": "530 ± 90", "unit": "µM"}, {"measurement": "kcat", "setting": "purified protein [12]", "result": "11.2 ± 0.417", "unit": "s⁻¹"}, {"measurement": "kcat/Km", "setting": "purified protein [12]", "result": 21700, "unit": "M⁻¹ s⁻¹"}, {"measurement": "Km", "setting": "purified protein [13]", "result": "12 ± 2", "unit": "µM"}, {"measurement": "kcat", "setting": "purified protein [13]", "result": "8.83 ± 0.417", "unit": "s⁻¹"}, {"measurement": "kcat/Km", "setting": "purified protein [13]", "result": 733000, "unit": "M⁻¹ s⁻¹"}]}]}
